Earlier results on one substance are cited in PMC3470569.

In general, Kd refers to the concentration at which binding is half-saturated.

This series concerns the target V-ATPase subunit a proximal lobe of N-terminal domain (Saccharomyces cerevisiae) (UniProt P32563).

Sequence of V-ATPase subunit C Cfoot (P31412 158-277): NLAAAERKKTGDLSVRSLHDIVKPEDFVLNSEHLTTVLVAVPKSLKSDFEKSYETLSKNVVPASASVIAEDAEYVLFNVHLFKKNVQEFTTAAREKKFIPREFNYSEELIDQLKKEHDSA
Sequence of V-ATPase subunit a proximal lobe of N-terminal domain (Saccharomyces cerevisiae) (P32563 104-372): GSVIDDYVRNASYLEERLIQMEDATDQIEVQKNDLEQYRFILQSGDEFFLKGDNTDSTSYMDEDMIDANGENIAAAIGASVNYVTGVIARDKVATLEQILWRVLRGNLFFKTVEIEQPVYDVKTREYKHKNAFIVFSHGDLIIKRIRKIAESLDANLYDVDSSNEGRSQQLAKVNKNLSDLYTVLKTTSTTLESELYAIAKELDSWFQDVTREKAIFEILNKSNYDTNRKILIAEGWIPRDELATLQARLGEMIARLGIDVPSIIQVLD

With “V-ATPase subunit C Cfoot (from UniProt P31412)”, the dissociation constant Kd was 30 µM.
